Patent publication US20150050278A1 (US Dept. of Health and Human Services, published 2015)

Columns and labels:
[1] = molecular target: T1, human neonatal Fc receptor (FcRn), soluble (human, UniProt P55899 24-297; P61769 21-119, limits assumed); assay: SPR (BIAcore X100), human FcRn immobilised on CM5 chip, pH 6.0; SPR (BIAcore X100), FcRn on CM5 chip, pH 6.0
T1 construct: also called human FcRn; human single-chain soluble FcRn
Method: The interaction of monomeric Fc with immobilized FcRn was monitored by SPR detection using a BIAcore X100 instrument (GE Healthcare). Purified human FcRn was diluted in 10 mM Na-acetate buffer, pH 5.0, and immobilized on a CM5 biosensor chip using amine coupling kit. The running buffer was PBS with 0.005% Tween 20 for testing binding at pH 7.4, or PBS pH 6.0 with 0.005% Tween 20 for binding at pH 6.0. […] After 10 min of dissociation, the chip was regenerated with pH 8.0 buffer (100 mM Tris, pH 8.0, 50 mM NaCl).
Human FcRn was immobilized on a CM5 bio sensor chip followed by analysis of the interaction using BIAcore X100. The binding was performed under pH 6.0 and pH 7.4, respectively, and the chip was regenerated with pH 8.0 buffer.

[2] = molecular target: T1, human neonatal Fc receptor (FcRn), …; assay: ELISA on coated human FcRn at pH 6.0, OD405
Method: Antigens were coating on ELISA plate wells at 50 ng per well in PBS overnight at 4° C., blocked with protein-free blocking buffer for 1 h at 37° C. Threefold serially diluted protein was added and incubated at 37° C. for 2 h. The plates were washed with PBST, and HRP-conjugated anti-Fc antibody in PBS was incubated with wells for 1 h at 37° C. After extensive washes with PBST, the binding was detected with the addition of ABTS substrate, and signals were read at 405 nm. For FcRn binding test at pH 6.0, all proteins were prepared in PBS with pH adjusted to 6.0 by HCl, and PBST with pH 6.0 was used for washing the wells.

[3] = molecular target: T1, human neonatal Fc receptor (FcRn), …; assay: SPR (BIAcore), human FcRn immobilised, pH 6.0; concentrations not given
[4] = molecular target: T1, human neonatal Fc receptor (FcRn), …; assay: SPR (BIAcore), human FcRn immobilised, pH 6.0; SPR (BIAcore), FcRn on the chip, pH 6.0
Method: The interaction of monomeric Fc with immobilized FcRn was monitored by SPR detection using a BIAcore X100 instrument (GE Healthcare). Purified human FcRn was diluted in 10 mM Na-acetate buffer, pH 5.0, and immobilized on a CM5 biosensor chip using amine coupling kit. The running buffer was PBS with 0.005% Tween 20 for testing binding at pH 7.4, or PBS pH 6.0 with 0.005% Tween 20 for binding at pH 6.0. […] After 10 min of dissociation, the chip was regenerated with pH 8.0 buffer (100 mM Tris, pH 8.0, 50 mM NaCl). Another test with a protein concentration of 500 nM was repeated to monitor the regeneration efficiency.
It was determined whether mCH3 could bind FcRn in a pH-dependent manner. Surface plasmon resonance (SPR) binding was performed using a BIAcore instrument with human FcRn immobilized on the chip, as described previously. The measurements were carried out under pH 6.0 or pH 7.4, and the chips were regenerated after binding by injection of a pH 8.0 buffer.

[5] = molecular target: T1, human neonatal Fc receptor (FcRn), …; assay: SPR, human FcRn immobilised, pH 6.0; pH 6.0

T1 sequence (P55899 24-297 limits assumed, chain 1 of 2): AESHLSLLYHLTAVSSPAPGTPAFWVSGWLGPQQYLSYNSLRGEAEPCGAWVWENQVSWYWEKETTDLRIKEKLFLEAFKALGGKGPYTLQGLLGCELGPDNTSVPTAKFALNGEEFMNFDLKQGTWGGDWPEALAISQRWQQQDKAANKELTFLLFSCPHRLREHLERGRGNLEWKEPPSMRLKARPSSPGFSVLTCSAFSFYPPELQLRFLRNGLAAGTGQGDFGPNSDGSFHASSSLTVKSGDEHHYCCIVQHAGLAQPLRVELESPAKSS
T1 sequence (P61769 21-119 limits assumed, chain 2 of 2): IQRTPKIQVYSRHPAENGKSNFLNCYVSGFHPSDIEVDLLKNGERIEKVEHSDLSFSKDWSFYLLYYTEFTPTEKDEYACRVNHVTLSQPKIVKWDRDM

Binder | Kd [1] [nM] | EC50 (read off the curve) [2] [nM] | further results
mFc.1 (designed binder, also called monomeric Fc mFc.1) APELLGGPSVFLFPPKPKDTLMISRTPEVTCVVVDVSHEDPEVKFNWYVDGVEVHNAKTKPREEQYNSTYRVVSVLTVLHQDWLNGKEYKCKVSNKALPAPIEKTISKAKGQPREPQVYTYPPSRDELTKNQVSLYCAVKGFYPSDIAVEWESNGQPENNYKTTRPVLDSDGSFRLMSALTVDKSRWQQGNVFSCSVMHEALHNHYTQKSLSLSPGK | 204 | ~100 | 
mFc.67 (designed binder, also called monomeric Fc mFc.67; mFc.67 monomer) APELLGGPSVFLFPPKPKDTLMISRTPEVTCVVVDVSHEDPEVKFNWYVDGVEVHNAKTKPREEQYNSTYRVVSVLTVLHQDWLNGKEYKCKVSNKALPAPIEKTISKAKGQPREPQVYTKPPSRDELTKNQVSLSCLVKGFYPSDIAVEWESNGQPENNYKTTVPVLDSDGSFRLASYLTVDKSRWQQGNVFSCSVMHEALHNHYTQKSLSLSPGK | 111 |  | 
mFc.23 (designed binder, also called monomeric Fc mFc.23) APELLGGPSVFLFPPKPKDTLMISRTPEVTCVVVDVSHEDPEVKFNWYVDGVEVHNAKTKPREEQYNSTYRVVSVLTVLHQDWLNGKEYKCKVSNKALPAPIEKTISKAKGQPREPQVYTSPPSRDELTKNQVSLRCHVKGFYPSDIAVEWESNGQPENNYKTTKPVLDSDGSFELKSALTVDKSRWQQGNVFSCSVMHEALHNHYTQKSLSLSPGK | 59 | ~60 | 
wild-type CH3 domain (other, also called isolated CH3; Fc CH3 domain) PREPQVYTLPPSRDELTKNQVSLTCLVKGFYPSDIAVEWESNGQPENNYKTTPPVLDSDGSFFLYSKLTVDKSRWQQGNVFSCSVMHEALHNHYTQKSLSLSPGK |  |  | binding result [3]: no binding
monomeric CH3 domain (mCH3) (designed binder) PREPQVYTSPPSRDELTKNQVSLRCHVKGFYPSDIAVEWESNGQPENNYKTTKPVLDSDGSFFLYSKLTVDKSRWQQGNVFSCSVMHEALHNHYTQKSLSLSPGK |  |  | Kd [4]: 940 nM
mCH3 343C/431C mutant (mCH3cc) (designed binder, additional disulfide bond between Cys343 and Cys431, also called engineered mCH3) CREPQVYTSPPSRDELTKNQVSLRCHVKGFYPSDIAVEWESNGQPENNYKTTKPVLDSDGSFFLYSKLTVDKSRWQQGNVFSCSVMHECLHNHYTQKSLSLSPGK |  |  | Kd [5]: 1080 nM
